{"source": "the DeepSol protein solubility set", "data": [{"assay": "soluble on expression in E. coli; label from the status in PepcDB or PDB records", "values": [{"sequence": "MGSDKIHHHHHHMHGNADVKFGNESVFDLARGSSTNDELLNICMIRSGFKKFEEEKEIQNTDGFFIADTSVYIKLGNRLGYLTKDRLLASKSVYNELSERTKLTQMGKEIIVFYLGMYSYRHLHKSPPVSEYNKSGDIPLIEETRKIKENIPEKVTLITADRQLKQRARTLGVNVIFLNTLKSDSGNMSELLLCASNRREYMEKYDYARRDLTITINDKEVIKIESDPTKEGFSRIKTLNKEFNYAKLIEKLYEMI", "soluble on expression in E. coli": "not soluble"}, {"sequence": "MGSDKIHHHHHHMHIKILKNRYPNIVVSKNPIKSSSDTISFFEEPYYFTIPKSNLSEEEAMLLHTLFPEPLPTFPKESTQFWFDLLFGNKELAMTNEKETYRITQFHIKTTTTKSMLQEWQKALLSFFSPEAELIMFSTNYGVIIEKSTGSLLGEEELIAVAGTLENDFYIQSTFFMGLFHPLNDRLRGLFAEERAIFNHNNREVVQTVASESLKVIALRMKESLITNELNDLFHQDDTWIPLIHTLFKNQGNISLTAKELFMHRNTIQYRLDKFYEQTNLSLRKMDGLLLAYLSTLQTNNSNHE", "soluble on expression in E. coli": "not soluble"}, {"sequence": "MGSDKIHHHHHHMHILIYSYNYHPEPIGIAPLMTELAEGLVNRGHEVRVITGMPNYPEREIYDGYRGQWYVTEQKNGVTIQRSYIRIKSKPNLLDRLLLELSFIFTSLPQAFRGERPDVMILTVPPLLGILPATIFGWLYNCPIVLNVQDILPEAAVRIGLLKNKWMIRTLAALEKFAYRTAHTISVIADGFRENLVNKGVPVNKIVCIPNWVNVNFIHPLPKQNNSWISSHQLDGKFIVLYSGNIALTQGLETVIEAAVCLRHIKEIVFVIVGESRALQRLQEYCLLHGADNVLLLPLQPREKLPEMLAAADVGLIVQKRNIISFNMPSKIPLLLASGRPIVGSVPATGTAARAIKLSGGGIIVEPESPDAMAAAVHDLYANPTFCTRLGNAGRQFAEENYSLEQALDRYEWLFYHILANRKSNVGILPKLDSKESVVDA", "soluble on expression in E. coli": "not soluble"}, {"sequence": "MGSDKIHHHHHHMHMRVLIINTSERIGGAAIAANRLMEALKNNGIKTKMLVRDKQTDQISVVELKKSWWKVWQFIWERVVIWQANHFKKHNLFAVDIANTGTNITALPEFTQADVIHLHWINQGMLSLTDIRRIIQSGKPIVWTMHDMWPFTGICHYAGDCDKYATQCHNCPQLYKGSRKDIAYRTFQKKKKLFEGAQITFVACSRWLESLAKKSDLIKGQTITNIPNAINTNLFKPRDKKQAREKCHLPQDKKLLLFGSVKITDKRKGIDYLVSACKQIASSYPDFSKELGVVVFGNQAEQYASLFPFPIYPMNYVSNEKELVDIYNAVDLYVTPSLQDNLPNTIVEAMACGIPCIGFNVGGIPQMIDHLHNGYVAEYQSSKDLANGIHWALTEGEYESLSEEACRKAVSSYSESTIAKKYVEIYNKITGNHA", "soluble on expression in E. coli": "not soluble"}, {"sequence": "MGSDKIHHHHHHMHNSLVRELVQAGRRTSCLGLTNGKMGIVIALFRYARLSGELTCEDVGCELLDEIYEHLDSSIPISFGSGLWGIGWGIEYLIQNSYMEGDADEVLKDIDQCAARCIHAYGMSGLSLNNGIVGLGRYILIRIIPTFLKGDTVSSAFLKEYLIYLIDWLEERLEYTNESIDDLLDFLFDLYPTGFYRTKVSVLIEKCMNRYNL", "soluble on expression in E. coli": "not soluble"}, {"sequence": "MGSDKIHHHHHHMHTDVNQLFAALWDDYVEMTPSAAKVHQLLAKGETIINDHIALRTFNIAKVNLSVLAKHFESLGYVACGDYDFEAKKLKAKHFEHPDPTQPKVFISELMVEAFSPELQAIVHGLVEQVDEAATTADNFLYSGRHWELDYATYEQLLAESEYAAWVAAFGYRANHFTVSINHLPGYNTILEVNETLKQGDFVLNSVGGEVKGSADVLLEQSSTMADKVNVAFKDVQKTIPSCFYEFALRYPKADGELYTGFVAASADKIFESTNNAG", "soluble on expression in E. coli": "not soluble"}, {"sequence": "MGSDKIHHHHHHMIDFLDVQKETPRIRIAIDRVGVKNIKFPLKIHDDFAFLTLNLFVDVPADRKGADMSRAVESIQKVINAGSYGERIGDIGIAICDEALSRFNYSEKAQCEVNIQYYRRSGERYLEYRMYVETAKDRKQIMKNEIGISYVTMTACPCAMETTRALISMDNPDISDAISAIPTITHNQRNVTKLTVDNRSKMITVWDLADVMERVQGKPLDSLLKRVEEGRLVYSAHRNPKFVEDVVREIAYEAARVLGVPDEATIKVSSESDESIHPHNAYAEIDTTAGELRKLHLH", "soluble on expression in E. coli": "not soluble"}]}]}
